Reference: ChEMBL document CHEMBL1649220, “New variant of CTX-M-type extended-spectrum beta-lactamases, CTX-M-71, with a Gly238Cys substitution in a Klebsiella pneumoniae isolate from Bulgaria” (2009)

How the values were obtained:
[1] = substrate: CC(C)(O/N=C(\C(=O)N[C@@H]1C(=O)N2C(C(=O)[O-])=C(C[n+]3ccccc3)CS[C@H]12)c1csc(N)n1)C(=O)O; assay: (§1) Activity of Klebsiella pneumoniae AH27 CTX-M-15 beta-lactamase
[2] = substrate: CC1(C)S[C@@H]2[C@H](NC(=O)Cc3ccccc3)C(=O)N2[C@H]1C(=O)O; assay: as §1
[3] = substrate: CO/N=C(\C(=O)N[C@@H]1C(=O)N2C(C(=O)O)=C(COC(C)=O)CS[C@H]12)c1csc(N)n1; assay: as §1
[4] = substrate: CO/N=C(\C(=O)N[C@@H]1C(=O)N2C(C(=O)O)=C(COC(N)=O)CS[C@H]12)c1ccco1; assay: as §1
[5] = substrate: C[C@@H](O)[C@H]1C(=O)N2C(C(=O)O)=C(SCCNC=N)C[C@H]12; assay: as §1
[6] = substrate: C[C@@H](O)[C@H]1C(=O)N2C(C(=O)O)=C(S[C@@H]3CN[C@H](C(=O)N(C)C)C3)[C@H](C)[C@H]12; assay: as §1
[7] = substrate: C[C@@H](O)[C@H]1C(=O)N2C(C(=O)O)=C(S[C@@H]3CN[C@H](CNS(N)(=O)=O)C3)[C@H](C)[C@H]12; assay: as §1
[8] = substrate: O=C(Cc1cccs1)N[C@@H]1C(=O)N2C(C(=O)[O-])=C(C[n+]3ccccc3)CS[C@H]12; assay: as §1
[9] = substrate: CC(C)(O/N=C(\C(=O)N[C@@H]1C(=O)N2C(C(=O)[O-])=C(C[n+]3ccccc3)CS[C@H]12)c1csc(N)n1)C(=O)O; assay: (§2) Activity of Klebsiella pneumoniae AH24-270 CTX-M-71 beta-lactamase
[10] = substrate: CC1(C)S[C@@H]2[C@H](NC(=O)Cc3ccccc3)C(=O)N2[C@H]1C(=O)O; assay: as §2
[11] = substrate: CC1(C)S[C@@H]2[C@H](NC(=O)[C@H](N)c3ccc(O)cc3)C(=O)N2[C@H]1C(=O)O; assay: as §2
[12] = substrate: CCN1CCN(C(=O)N[C@@H](C(=O)N[C@@H]2C(=O)N3[C@@H]2SC(C)(C)[C@@H]3C(=O)O)c2ccccc2)C(=O)C1=O; assay: as §2
[13] = substrate: CO/N=C(\C(=O)N[C@@H]1C(=O)N2C(C(=O)O)=C(COC(C)=O)CS[C@H]12)c1csc(N)n1; assay: as §2
[14] = substrate: CO/N=C(\C(=O)N[C@@H]1C(=O)N2C(C(=O)O)=C(COC(N)=O)CS[C@H]12)c1ccco1; assay: as §2
[15] = substrate: C[C@@H](O)[C@H]1C(=O)N2C(C(=O)O)=C(SCCNC=N)C[C@H]12; assay: as §2
[16] = substrate: C[C@@H](O)[C@H]1C(=O)N2C(C(=O)O)=C(S[C@@H]3CN[C@H](C(=O)N(C)C)C3)[C@H](C)[C@H]12; assay: as §2
[17] = substrate: C[C@@H](O)[C@H]1C(=O)N2C(C(=O)O)=C(S[C@@H]3CN[C@H](CNS(N)(=O)=O)C3)[C@H](C)[C@H]12; assay: as §2
[18] = substrate: C[C@@H](O)[C@H]1C(=O)N2C(C(=O)O)=C([C@H]3CCCO3)S[C@H]12; assay: as §2
[19] = substrate: C[C@H]1[C@H](NC(=O)/C(=N\OC(C)(C)C(=O)O)c2csc(N)n2)C(=O)N1S(=O)(=O)O; assay: as §2
[20] = substrate: O=C(Cc1cccs1)N[C@@H]1C(=O)N2C(C(=O)[O-])=C(C[n+]3ccccc3)CS[C@H]12; assay: as §2

B1: Beta-lactamase AH27 CTX-M-15 (Klebsiella pneumoniae), Q2PUH3 (protein)
chain: MVKKSLRQFTLMATATVTLLLGSVPLYAQTADVQQKLAELERQSGGRLGVALINTADNSQILYRADERFAMCSTSKVMAAAAVLKKSESEPNLLNQRVEIKKSDLVNYNPIAEKHVNGTMSLAELSAAALQYSDNVAMNKLIAHVGGPASVTAFARQLGDETFRLDRTEPTLNTAIPGDPRDTTSPRAMAQTLRNLTLGKALGDSQRAQLVTWMKGNTTGAASIQAGLPASWVVGDKTGSGGYGTTNDIAVIWPKDRAPLILVTYFTQPQPKAESRRDVLASAAKIVTDGL
**Q.** With B1 as the protein, how does the Km [1] read?
**A.** 236 µM

**Q.** What about the kcat [1] of the same protein?
**A.** 4.4 s⁻¹

**Q.** What about the Km [2] of the same protein?
**A.** 8.7 µM

**Q.** And the kcat [2]?
**A.** 47 s⁻¹

**Q.** And the Km [3]?
**A.** 26 µM

**Q.** And the kcat [3]?
**A.** 176 s⁻¹

**Q.** What about the Km [4] of the same protein?
**A.** 180 µM

**Q.** What about the kcat [4] of the same protein?
**A.** 45 s⁻¹

**Q.** What about the kcat [5] of the same protein?
**A.** < 0.17 s⁻¹

**Q.** And the kcat [6]?
**A.** < 0.004 s⁻¹

**Q.** And the kcat [7]?
**A.** < 0.002 s⁻¹

**Q.** And the Km [8]?
**A.** 39 µM

**Q.** And the kcat [8]?
**A.** 188 s⁻¹

B2: Extended spectrum beta-lactamase CTX-M-71 (Klebsiella pneumoniae), C8YUV9 (protein)
chain: MVKKSLRQFTLMATATVTLLLGSVPLYAQTADVQQKLAELERQSGGRLGVALINTADNSQILYRADERFAMCSTSKVMAAAAVLKKSESEPNLLNQRVEIKKSDLVNYNPIAEKHVNGTMSLAELSAAALQYSDNVAMNKLIAHVGGPASVTAFARQLGDETFRLDRTEPTLNTAIPGDPRDTTSPRAMAQTLRNLTLGKALGDSQRAQLVTWMKGNTTGAASIQAGLPASWVVGDKTGSCGYGTTNDIAVIWPKDRAPLILVTYFTQPQPKAESRRDVLASAAKIVTDGL
**Q.** With B2 as the protein, how does the Km [9] read?
**A.** 180 µM

**Q.** What about the kcat [9] of the same protein?
**A.** 0.69 s⁻¹

**Q.** What about the Km [10] of the same protein?
**A.** 4.9 µM

**Q.** What about the kcat [10] of the same protein?
**A.** 58 s⁻¹

**Q.** And the Km [11]?
**A.** 5.2 µM

**Q.** What about the kcat [11] of the same protein?
**A.** 49 s⁻¹

**Q.** What about the Km [12] of the same protein?
**A.** 3.2 µM

**Q.** And the kcat [12]?
**A.** 27 s⁻¹

**Q.** What about the Km [13] of the same protein?
**A.** 130 µM

**Q.** And the kcat [13]?
**A.** 65 s⁻¹

**Q.** And the Km [14]?
**A.** 85 µM

**Q.** And the kcat [14]?
**A.** 8.8 s⁻¹

**Q.** What about the kcat [15] of the same protein?
**A.** < 0.07 s⁻¹

**Q.** What about the kcat [16] of the same protein?
**A.** < 0.07 s⁻¹

**Q.** And the kcat [17]?
**A.** < 0.05 s⁻¹

**Q.** And the kcat [18]?
**A.** < 0.46 s⁻¹

**Q.** And the Km [19]?
**A.** 10 µM

**Q.** What about the kcat [19] of the same protein?
**A.** 0.84 s⁻¹

**Q.** What about the Km [20] of the same protein?
**A.** 18 µM

**Q.** And the kcat [20]?
**A.** 68 s⁻¹
